Measurements published in US20260193335A1 (ZOETIS SERVICES, published 2026).

B1: mAb4 (felinized anti-IL31 antibody ZTS-5864) S428A, feline IgG1a (antibody)
heavy: DVQLVESGGDLVKPGGSLRLTCVASGFTFSDYAMSWVRQAPGKGLQWVAGIDSVGSGTSYADSVKGRFTISRDNAKNTLYLQMNSLKTEDTATYYCASGFPGSFEHWGQGTLVTVSSASTTAPSVFPLAPSCGTTSGATVALACLVLGYFPEPVTVSWNSGALTSGVHTFPAVLQASGLYSLSSMVTVPSSRWLSDTFTCNVAHPPSNTKVDKTVRKTDHPPGPKPCDCPKCPPPEMLGGPSIFIFPPKPKDTLSISRTPEVTCLVVDLGPDDSDVQITWFVDNTQVYTAKTSPREEQFNSTYRVVSVLPILHQDWLKGKEFKCKVNSKSLPSPIERTISKAKGQPHEPQVYVLPPAQEELSRNKVSVTCLIKSFHPPDIAVEWEITGQPEPENNYRTTPPQLDSDGTYFVYSKLSVDRSHWQRGNTYTCSVAHEALHSHHTQKSLTQSPGK
VL: QSVLTQPSSVSGTLGQRITISCTGSSSNIGSGYVGWYQQVPGMGPKTVIYYNSDRPSGVPDRFSGSKSGSSGTLTITGLQAEDEADYYCSVYDRTFNAVFGGGT
notes: also called mAb4 ID No. 2
B2: mAb4 (felinized anti-IL31 antibody ZTS-5864) S428L and S434L, feline IgG1a (antibody)
heavy: DVQLVESGGDLVKPGGSLRLTCVASGFTFSDYAMSWVRQAPGKGLQWVAGIDSVGSGTSYADSVKGRFTISRDNAKNTLYLQMNSLKTEDTATYYCASGFPGSFEHWGQGTLVTVSSASTTAPSVFPLAPSCGTTSGATVALACLVLGYFPEPVTVSWNSGALTSGVHTFPAVLQASGLYSLSSMVTVPSSRWLSDTFTCNVAHPPSNTKVDKTVRKTDHPPGPKPCDCPKCPPPEMLGGPSIFIFPPKPKDTLSISRTPEVTCLVVDLGPDDSDVQITWFVDNTQVYTAKTSPREEQFNSTYRVVSVLPILHQDWLKGKEFKCKVNSKSLPSPIERTISKAKGQPHEPQVYVLPPAQEELSRNKVSVTCLIKSFHPPDIAVEWEITGQPEPENNYRTTPPQLDSDGTYFVYSKLSVDRSHWQRGNTYTCSVLHEALHLHHTQKSLTQSPGK
VL: QSVLTQPSSVSGTLGQRITISCTGSSSNIGSGYVGWYQQVPGMGPKTVIYYNSDRPSGVPDRFSGSKSGSSGTLTITGLQAEDEADYYCSVYDRTFNAVFGGGT
notes: also called mAb4 ID No. 24
B3: mAb4 (felinized anti-IL31 antibody ZTS-5864) S428L and S434H, feline IgG1a (antibody)
heavy: DVQLVESGGDLVKPGGSLRLTCVASGFTFSDYAMSWVRQAPGKGLQWVAGIDSVGSGTSYADSVKGRFTISRDNAKNTLYLQMNSLKTEDTATYYCASGFPGSFEHWGQGTLVTVSSASTTAPSVFPLAPSCGTTSGATVALACLVLGYFPEPVTVSWNSGALTSGVHTFPAVLQASGLYSLSSMVTVPSSRWLSDTFTCNVAHPPSNTKVDKTVRKTDHPPGPKPCDCPKCPPPEMLGGPSIFIFPPKPKDTLSISRTPEVTCLVVDLGPDDSDVQITWFVDNTQVYTAKTSPREEQFNSTYRVVSVLPILHQDWLKGKEFKCKVNSKSLPSPIERTISKAKGQPHEPQVYVLPPAQEELSRNKVSVTCLIKSFHPPDIAVEWEITGQPEPENNYRTTPPQLDSDGTYFVYSKLSVDRSHWQRGNTYTCSVLHEALHHHHTQKSLTQSPGK
VL: QSVLTQPSSVSGTLGQRITISCTGSSSNIGSGYVGWYQQVPGMGPKTVIYYNSDRPSGVPDRFSGSKSGSSGTLTITGLQAEDEADYYCSVYDRTFNAVFGGGT
notes: also called mAb4 ID No. 22
B4: mAb4 (felinized anti-IL31 antibody ZTS-5864) S428D, feline IgG1a (antibody)
heavy: DVQLVESGGDLVKPGGSLRLTCVASGFTFSDYAMSWVRQAPGKGLQWVAGIDSVGSGTSYADSVKGRFTISRDNAKNTLYLQMNSLKTEDTATYYCASGFPGSFEHWGQGTLVTVSSASTTAPSVFPLAPSCGTTSGATVALACLVLGYFPEPVTVSWNSGALTSGVHTFPAVLQASGLYSLSSMVTVPSSRWLSDTFTCNVAHPPSNTKVDKTVRKTDHPPGPKPCDCPKCPPPEMLGGPSIFIFPPKPKDTLSISRTPEVTCLVVDLGPDDSDVQITWFVDNTQVYTAKTSPREEQFNSTYRVVSVLPILHQDWLKGKEFKCKVNSKSLPSPIERTISKAKGQPHEPQVYVLPPAQEELSRNKVSVTCLIKSFHPPDIAVEWEITGQPEPENNYRTTPPQLDSDGTYFVYSKLSVDRSHWQRGNTYTCSVDHEALHSHHTQKSLTQSPGK
VL: QSVLTQPSSVSGTLGQRITISCTGSSSNIGSGYVGWYQQVPGMGPKTVIYYNSDRPSGVPDRFSGSKSGSSGTLTITGLQAEDEADYYCSVYDRTFNAVFGGGT
notes: also called mAb4 ID No. 4
B5: mAb4 (felinized anti-IL31 antibody ZTS-5864) S428C, feline IgG1a (antibody)
heavy: DVQLVESGGDLVKPGGSLRLTCVASGFTFSDYAMSWVRQAPGKGLQWVAGIDSVGSGTSYADSVKGRFTISRDNAKNTLYLQMNSLKTEDTATYYCASGFPGSFEHWGQGTLVTVSSASTTAPSVFPLAPSCGTTSGATVALACLVLGYFPEPVTVSWNSGALTSGVHTFPAVLQASGLYSLSSMVTVPSSRWLSDTFTCNVAHPPSNTKVDKTVRKTDHPPGPKPCDCPKCPPPEMLGGPSIFIFPPKPKDTLSISRTPEVTCLVVDLGPDDSDVQITWFVDNTQVYTAKTSPREEQFNSTYRVVSVLPILHQDWLKGKEFKCKVNSKSLPSPIERTISKAKGQPHEPQVYVLPPAQEELSRNKVSVTCLIKSFHPPDIAVEWEITGQPEPENNYRTTPPQLDSDGTYFVYSKLSVDRSHWQRGNTYTCSVCHEALHSHHTQKSLTQSPGK
VL: QSVLTQPSSVSGTLGQRITISCTGSSSNIGSGYVGWYQQVPGMGPKTVIYYNSDRPSGVPDRFSGSKSGSSGTLTITGLQAEDEADYYCSVYDRTFNAVFGGGT
notes: also called mAb4 ID No. 3
B6: mAb4 (felinized anti-IL31 antibody ZTS-5864) S428M and S434H, feline IgG1a (antibody)
heavy: DVQLVESGGDLVKPGGSLRLTCVASGFTFSDYAMSWVRQAPGKGLQWVAGIDSVGSGTSYADSVKGRFTISRDNAKNTLYLQMNSLKTEDTATYYCASGFPGSFEHWGQGTLVTVSSASTTAPSVFPLAPSCGTTSGATVALACLVLGYFPEPVTVSWNSGALTSGVHTFPAVLQASGLYSLSSMVTVPSSRWLSDTFTCNVAHPPSNTKVDKTVRKTDHPPGPKPCDCPKCPPPEMLGGPSIFIFPPKPKDTLSISRTPEVTCLVVDLGPDDSDVQITWFVDNTQVYTAKTSPREEQFNSTYRVVSVLPILHQDWLKGKEFKCKVNSKSLPSPIERTISKAKGQPHEPQVYVLPPAQEELSRNKVSVTCLIKSFHPPDIAVEWEITGQPEPENNYRTTPPQLDSDGTYFVYSKLSVDRSHWQRGNTYTCSVMHEALHHHHTQKSLTQSPGK
VL: QSVLTQPSSVSGTLGQRITISCTGSSSNIGSGYVGWYQQVPGMGPKTVIYYNSDRPSGVPDRFSGSKSGSSGTLTITGLQAEDEADYYCSVYDRTFNAVFGGGT
notes: also called mAb4 ID No. 32
B7: mAb4 (felinized anti-IL31 antibody ZTS-5864) S428L and S434W, feline IgG1a (antibody)
heavy: DVQLVESGGDLVKPGGSLRLTCVASGFTFSDYAMSWVRQAPGKGLQWVAGIDSVGSGTSYADSVKGRFTISRDNAKNTLYLQMNSLKTEDTATYYCASGFPGSFEHWGQGTLVTVSSASTTAPSVFPLAPSCGTTSGATVALACLVLGYFPEPVTVSWNSGALTSGVHTFPAVLQASGLYSLSSMVTVPSSRWLSDTFTCNVAHPPSNTKVDKTVRKTDHPPGPKPCDCPKCPPPEMLGGPSIFIFPPKPKDTLSISRTPEVTCLVVDLGPDDSDVQITWFVDNTQVYTAKTSPREEQFNSTYRVVSVLPILHQDWLKGKEFKCKVNSKSLPSPIERTISKAKGQPHEPQVYVLPPAQEELSRNKVSVTCLIKSFHPPDIAVEWEITGQPEPENNYRTTPPQLDSDGTYFVYSKLSVDRSHWQRGNTYTCSVLHEALHWHHTQKSLTQSPGK
VL: QSVLTQPSSVSGTLGQRITISCTGSSSNIGSGYVGWYQQVPGMGPKTVIYYNSDRPSGVPDRFSGSKSGSSGTLTITGLQAEDEADYYCSVYDRTFNAVFGGGT
notes: also called mAb4 ID No. 26
B8: mAb4 (felinized anti-IL31 antibody ZTS-5864) S428L and S434F, feline IgG1a (antibody)
heavy: DVQLVESGGDLVKPGGSLRLTCVASGFTFSDYAMSWVRQAPGKGLQWVAGIDSVGSGTSYADSVKGRFTISRDNAKNTLYLQMNSLKTEDTATYYCASGFPGSFEHWGQGTLVTVSSASTTAPSVFPLAPSCGTTSGATVALACLVLGYFPEPVTVSWNSGALTSGVHTFPAVLQASGLYSLSSMVTVPSSRWLSDTFTCNVAHPPSNTKVDKTVRKTDHPPGPKPCDCPKCPPPEMLGGPSIFIFPPKPKDTLSISRTPEVTCLVVDLGPDDSDVQITWFVDNTQVYTAKTSPREEQFNSTYRVVSVLPILHQDWLKGKEFKCKVNSKSLPSPIERTISKAKGQPHEPQVYVLPPAQEELSRNKVSVTCLIKSFHPPDIAVEWEITGQPEPENNYRTTPPQLDSDGTYFVYSKLSVDRSHWQRGNTYTCSVLHEALHFHHTQKSLTQSPGK
VL: QSVLTQPSSVSGTLGQRITISCTGSSSNIGSGYVGWYQQVPGMGPKTVIYYNSDRPSGVPDRFSGSKSGSSGTLTITGLQAEDEADYYCSVYDRTFNAVFGGGT
notes: also called mAb4 ID No. 23
B9: mAb4 (felinized anti-IL31 antibody ZTS-5864) S428L and S434P, feline IgG1a (antibody)
heavy: DVQLVESGGDLVKPGGSLRLTCVASGFTFSDYAMSWVRQAPGKGLQWVAGIDSVGSGTSYADSVKGRFTISRDNAKNTLYLQMNSLKTEDTATYYCASGFPGSFEHWGQGTLVTVSSASTTAPSVFPLAPSCGTTSGATVALACLVLGYFPEPVTVSWNSGALTSGVHTFPAVLQASGLYSLSSMVTVPSSRWLSDTFTCNVAHPPSNTKVDKTVRKTDHPPGPKPCDCPKCPPPEMLGGPSIFIFPPKPKDTLSISRTPEVTCLVVDLGPDDSDVQITWFVDNTQVYTAKTSPREEQFNSTYRVVSVLPILHQDWLKGKEFKCKVNSKSLPSPIERTISKAKGQPHEPQVYVLPPAQEELSRNKVSVTCLIKSFHPPDIAVEWEITGQPEPENNYRTTPPQLDSDGTYFVYSKLSVDRSHWQRGNTYTCSVLHEALHPHHTQKSLTQSPGK
VL: QSVLTQPSSVSGTLGQRITISCTGSSSNIGSGYVGWYQQVPGMGPKTVIYYNSDRPSGVPDRFSGSKSGSSGTLTITGLQAEDEADYYCSVYDRTFNAVFGGGT
notes: also called mAb4 ID No. 25

Molecular target: T1, Feline FcRn (complex of FcRn-α subunit and β-microglobulin, C-terminal His tag) (feline, UniProt A0ABI7ZNY9 23-296; Q5MGS7 21-118)
T1 construct: treated here as one molecule
Experiment: SPR Biacore, biotin-FcRn on SA chip, pH 6
Experimental: Feline FcRn was isolated, prepared and mutant Fc IgGs were assayed against feline FcRn according to Strietzel et. al., discussed above. Standard PCR was used to amplify feline FcRn-α subunit and β-microglobulin. FcRn-α subunit and β-microglobulin were co-transfected into HEK 293 cells and the FcRn complex was purified by IMAC affinity purification via the c-terminal His tag. FcRn complex was biotin labeled through BirA enzymatic biotinylatoin reaction. KD's were measured by Biacore T200 (GE Healthcare, Pittsburgh, PA, USA) or Biacore 8K (Cytiva, Marlborough, MA, USA) using a SA sensor chip.
FcRn was captured on the surface of the sensor using a modified SA capture method. 10 mM MES; 150 mM NaCl; 0.005% Tween20; 0.5 mg/mL BSA; pH6 was used as capture, method running buffer and titrations. 1×HBS-P, 0.5 mg/mL BSA; pH7.4 was also used for method running buffer and titrations. Fc mutant IgGs were flowed over receptor surfaces and affinity was determined using T200 evaluation software or Biacore Insight Evaluation software. Blank runs containing buffer only were subtracted out from all runs. Flow cells were regenerated using 50 mM Tris pH8 or pH9. Runs were performed at 15° C.

B1 and B2 are within 1.5-fold of each other in Kd: 66.4 nM for the first, 97.2 nM for the second.

First: B3
Second: B4
The Kd of the first is 11-fold lower: 17.7 nM for the first, 190 nM for the second.

Compared with B5, B6 is 1.7-fold lower in Kd: 29 nM for the first, 17.2 nM for the second.

Compared with B7, B8 is 4.9-fold higher in Kd: 17.2 nM for the first, 84.7 nM for the second. The first binds more tightly here.

B9 gave a Kd of 2250 nM.
